Assay results published in patent US20200325187A1 (Genentech, published 2020).
Residue numbers refer to the chain shown, from its start. In names and notes the source's numbering stands.

T1: hVEGF-A (8-109) (human, UniProt P15692 214-315)
T1 sequence (looked up): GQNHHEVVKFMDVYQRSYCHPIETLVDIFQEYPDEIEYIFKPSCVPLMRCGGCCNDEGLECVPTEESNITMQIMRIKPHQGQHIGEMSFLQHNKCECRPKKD

B1: VEGF_CKP9.63.44 (designed binder)
chain: GCDVMQPYWGCEMDFDCLAGCVCHWYNSCG
notes: also called L2.9.63.44
B2: VEGF_CKP9.63.27 (designed binder)
chain: B1 chain with E12G, M13R, F15M
notes: also called L2.9.63.27
B3: VEGF_CKP9.54.2 (designed binder)
chain: GCNIMLPFWGCGLDYDCLAGCVCQYYQSCG
B4: VEGF_CKP9.54.59 (designed binder)
chain: B3 chain with L13P, Y15L, D16Q
B5: VEGF_CKP9.63.1 (designed binder)
chain: GCDVMQPYWGCGENFLCLAGCVCHWYNSCG
notes: also called L2.9.63.1
B6: VEGF_CKP9.63.69 (designed binder)
chain: B5 chain with N14S, F15L, L16S
notes: also called L2.9.63.69
B7: VEGF_CKP7.81 (designed binder)
chain: GCLDPTVNWALFCKQDSDCLAGCVCQHYKTCG
B8: VEGF_CKP7.78 (designed binder)
chain: GCKDTTFNWGLFCKQDSDCLAGCVCQLYQSCG
B9: LRP6_CKP7.89 (designed binder)
chain: GCLDPSFDWALYCKQDSDCLAGCVCQLYNSCG
B10: VEGF_CKP7.88 (designed binder)
chain: GCQDPKLNWAVYCKQDSDCLAGCVCQLFNSCG
B11: VEGF_CKP9.L1.78 (designed binder)
chain: GCNPMLPLWGCKQDSDCLAGCVCHWYQSCG
B12: VEGF_CKP9.L1.79 (designed binder)
chain: GCQVLQPSWGCKQDSDCLAGCVCHWYQSCG
B13: VEGF_CKP9.L1.76 (designed binder)
chain: B11 chain with N3D, P4L, L6Q
B14: VEGF_CKP9.L1.7 (designed binder)
chain: B12 chain with L5M, Q6R, S8F
B15: VEGF_CKP9.L1.64 (designed binder)
chain: B11 chain with P4V, M5L
B16: VEGF_CKP9.L1.57 (designed binder)
chain: B11 chain with L8F
B17: VEGF_CKP9.L1.19 (designed binder)
chain: B12 chain with Q3H, V4R, S8L
B18: VEGF_CKP9.L1.68 (designed binder)
chain: B11 chain with N3D, P4I, L6Q
B19: VEGF_CKP9.L1.2 (designed binder)
chain: GCHLFEPLWGCKQDSDCLAGCVCHWYQSCG
B20: VEGF_CKP9.L1.8 (designed binder)
chain: B12 chain with L5M, S8A
B21: VEGF_CKP9.9 (designed binder)
chain: GCQLLEPMWGCKQDSDCLAGCVCHWYNSCG
B22: VEGF_CKP9.11 (designed binder)
chain: GCDRMQPYWGCKQDSDCLAGCVCQWYKSCG
B23: VEGF_CKP9.51 (designed binder)
chain: B11 chain with P4L, L6H, L8F
B24: VEGF_CKP9.76 (designed binder)
chain: GCHLLLPLWGCKQDSDCLAGCVCRWYHSCG
B25: VEGF_CKP9.14 (designed binder)
chain: GCKLLQPMWGCKQDSDCLAGCVCRWYQSCG
B26: VEGF_CKP9.69 (designed binder)
chain: B24 chain with H3A, L6Q, H27N
B27: VEGF_CKP9.96 (designed binder)
chain: B19 chain with H3K, H24R, Q27E
B28: VEGF_CKP9.72 (designed binder)
chain: GCRLLEPSWGCKQDSDCLAGCVCQWYQSCG
B29: VEGF_CKP9.71 (designed binder)
chain: B25 chain with K3Q, M8L
B30: VEGF_CKP9.47 (designed binder)
chain: GCKIMQPLWGCKQDSDCLAGCVCLWYDSCG
B31: VEGF_CKP9.3 (designed binder)
chain: GCQISQPFWGCKQDSDCLAGCVCHFYNSCG
B32: VEGF_CKP9.20 (designed binder)
chain: B24 chain with H3N, L5M, L8F
B33: VEGF_CKP9.4 (designed binder)
chain: B22 chain with Y8L, Q24L
B34: VEGF_CKP9.59 (designed binder)
chain: GCDPMQPFWGCKQDSDCLAGCVCRWYQSCG
B35: 9.63.44-1 (designed binder)
chain: GCDVMQPYWGCEMDFDCLAGCICHWYNSCGFS
B36: 9.63.44-4 (designed binder)
chain: B35 chain with F31S, S32R
B37: 9.63.44-3 (designed binder)
chain: B35 chain with F31Y, S32A
B38: 9.63.44-6 (designed binder)
chain: B35 chain with I22V, F31S, S32M
B39: 9.63.44-5 (designed binder)
chain: B35 chain with F31P, S32T
B40: 9.63.44-2 (designed binder)
chain: B35 chain with F31Q, S32V
B41: VEGF_CKP9.54.90.44 (designed binder)
chain: GCNIMLPFWGCGRDFECFINCICQYYQSCG
B42: 9.54.90.F7Y.A2G (designed binder)
chain: CNIMLPYWGCGRDFECLAGCVCQYYQSC
B43: VEGF_CKP9.54.90.62.F8Y (designed binder)
chain: B41 chain with F8Y, I19Y, N20E
B44: VEGF_CKP9.63.12.12 (designed binder)
chain: GCDVMQPYWGCGPDIDCLSNCICHWYNSCG
B45: VEGF_CKP9.54.90.13.F8Y (designed binder)
chain: GCNIMLPYWGCGRDFECMNQCICQYYQSCG
B46: VEGF_CKP9.54.90.25 (designed binder)
chain: B41 chain with F18M, I19Q, N20T

What follows are binders tested against T1, hVEGF-A (8-109) (assay: spot phage ELISA).
Experimental: (§1) After four rounds of binding selection, individual phage clones were picked and inoculated into 450 μl 2YT media containing 50 µg/ml Carbenecillin and M13-KO7 helper phage in 96-well blocks, which were grown at 37° C. overnight. […] The plates were washed and bound phage was detected with anti-M13-HRP followed by TMB substrate. In these assays, phage binding to BSA alone was tested in parallel to assess background binding. […] Positive clones were subjected to DNA sequence analysis.
For B1, the ELISA was 1.7 and the “S/N vs BSA” value was 19.5.
For B2, the ELISA was 2.1 and the “S/N vs BSA” value was 26.
In the case of B3, the ELISA is reported as 0.1 and the “S/N vs BSA” value is reported as 26.
For B4, the ELISA was 2.3 and the “S/N vs BSA” value was 35.4.
B5 was tested, and the ELISA was 2 and the “S/N vs BSA” value was 25.2.
B6 was tested, and the ELISA was 2.9 and the “S/N vs BSA” value was 23.7.

These binders were tested against T2, hVEGF-A (human, UniProt P15692-4 27-191, limits assumed) (assay: cell-based or functional assay).
B1 was tested, and the “Cellular IC50” value was 2.05 nM.
In the case of B2, the “Cellular IC50” value is reported as 5.28 nM.
With B3 the “Cellular IC50” value was 4.3 nM.
With B4 the “Cellular IC50” value was 3.06 nM.
In the case of B5, the “Cellular IC50” value is reported as 0.49 nM.
B6 was tested, and the “Cellular IC50” value was 26.4 nM.

The binders below were run against T2, hVEGF-A (assay: KDR-VEGF competition ELISA).
B1 gave an IC50 of 0.2 nM.
For B2, the IC50 was 0.3 nM.
For B3, the IC50 was 0.2 nM.
Work on B4 yielded an IC50 of 0.5 nM.
B5 showed an IC50 of 0.4 nM.
Work on B6 yielded an IC50 of 2.1 nM.

Target: T1, hVEGF-A (8-109)
Test: spot phage ELISA
Remark: another data set of the same source
Experimental: as §1
With B7 the ELISA was 1.1 and the “S/N vs BSA” value was 18.6.
B8 was tested, and the ELISA was 0.7 and the “S/N vs BSA” value was 11.8.
In the case of B9, the ELISA is reported as 0.5 and the “S/N vs BSA” value is reported as 8.1.
In the case of B10, the ELISA is reported as 0.5 and the “S/N vs BSA” value is reported as 7.7.

Target: T1, hVEGF-A (8-109)
Test: spot phage ELISA
Remark: another data set of the same source
Experimental: as §1
For B11, the ELISA was 3 and the “S/N vs BSA” value was 25.1.
With B12 the ELISA was 1.2 and the “S/N vs BSA” value was 10.
With B13 the ELISA was 2.5 and the “S/N vs BSA” value was 17.4.
For B14, the ELISA was 1.5 and the “S/N vs BSA” value was 8.9.
With B15 the ELISA was 2.3 and the “S/N vs BSA” value was 19.9.
With B16 the ELISA was 3.7 and the “S/N vs BSA” value was 31.8.
B17 was tested, and the ELISA was 1.4 and the “S/N vs BSA” value was 11.6.
With B18 the ELISA was 2 and the “S/N vs BSA” value was 23.2.
In the case of B19, the ELISA is reported as 1.6 and the “S/N vs BSA” value is reported as 12.5.
For B20, the ELISA was 1.2 and the “S/N vs BSA” value was 12.8.

Target: T1, hVEGF-A (8-109)
Test: spot phage ELISA
Remark: another data set of the same source
Experimental: as §1
With B21 the ELISA was 1.1 and the “S/N vs BSA” value was 19.7.
For B22, the ELISA was 1.1 and the “S/N vs BSA” value was 14.1.
In the case of B23, the ELISA is reported as 1 and the “S/N vs BSA” value is reported as 11.
With B24 the ELISA was 1.3 and the “S/N vs BSA” value was 15.5.
B25 was tested, and the ELISA was 2 and the “S/N vs BSA” value was 30.1.
For B26, the ELISA was 1 and the “S/N vs BSA” value was 14.3.
In the case of B27, the ELISA is reported as 1.2 and the “S/N vs BSA” value is reported as 18.4.
For B28, the ELISA was 0.6 and the “S/N vs BSA” value was 10.
B29 was tested, and the ELISA was 1 and the “S/N vs BSA” value was 16.5.
For B30, the ELISA was 1 and the “S/N vs BSA” value was 14.6.
With B31 the ELISA was 1.6 and the “S/N vs BSA” value was 24.5.

The binders below were run against T2, hVEGF-A (assay: phage competition ELISA, soluble CKP).
With B32 the IC50 was 1340 nM.
In the case of B27, the IC50 is reported as 49000 nM.
B33 showed an IC50 of 1950 nM.
In the case of B31, the IC50 is reported as 1500 nM.
In the case of B34, the IC50 is reported as 5820 nM.

The binders below were run against T1, hVEGF-A (8-109) (assay: phage competition ELISA (clone on phage; the concentration varied on the axis is that of hVEGF (8-109))).
In the case of B35, the “IC50 (read off the curve)” value is reported as roughly 0.04 nM.
B36 was tested, and the “IC50 (read off the curve)” value was roughly 0.04 nM.
With B37 the “IC50 (read off the curve)” value was roughly 0.03 nM.
B38: binds.
B39: binds.
B40 was tested, and the “IC50 (read off the curve)” value was roughly 0.03 nM.

Target: T2, hVEGF-A
Test: cell-based or functional assay
Remark: another data set of the same source
Work on B41 yielded a Cellular IC50 of 1.16 nM and an FOLD [..] [..] TO VARIANT 9.54.90 of 1.16 fold.
B42 gave a Cellular IC50 of 3.01 nM and an FOLD [..] [..] TO VARIANT 9.54.90 of 0.44 fold.
B43 showed a Cellular IC50 of 1.14 nM and an FOLD [..] [..] TO VARIANT 9.54.90 of 1.18 fold.
Work on B44 yielded a Cellular IC50 of 0.56 nM and an FOLD [..] [..] TO VARIANT 9.54.90 of 2.41 fold.
Binder B45 has a Cellular IC50 of 2.02 nM and an FOLD [..] [..] TO VARIANT 9.54.90 of 0.67 fold.
B46 showed a Cellular IC50 of 1.26 nM and an FOLD [..] [..] TO VARIANT 9.54.90 of 1.07 fold.
